# Residue numbers refer to the chain shown, from its start.
# T1: human WISE (human, UniProt Q6X4U4 24-206)
# T1 construct: Recombinant, made in E. coli or mammalian cells; biotinylated in the ELISAs, amine-coupled to CM5 in Biacore; also called huWise; huWISE
# T1 sequence: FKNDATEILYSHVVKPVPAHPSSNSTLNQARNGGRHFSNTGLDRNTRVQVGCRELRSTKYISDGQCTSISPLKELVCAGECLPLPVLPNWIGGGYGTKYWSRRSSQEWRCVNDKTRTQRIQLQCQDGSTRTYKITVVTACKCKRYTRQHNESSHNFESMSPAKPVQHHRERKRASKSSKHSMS
# B1: Ab-48 (antibody, human IgG2, kappa, V domains shown)
# VH: QVQLVQSGAEVKKPGSSVKVSCKASGGTFSSTYISWVRQAPGQGLEWMGWIYAGTGGTRYNRKFTGRVTITADESTSTAYMELSSLRSEDTAVYYCAREGVDGWFTYWGQGTLVTVSS
# VL: DIQMTQSPSSLSASIGDRVTITCQASQDINNYLNWYQQKQGKAPKVLIFDASNLAAGVPSRFSGSGSGTDFTLTISSLQPEDIATYYCQQYDNLPLTFGQGTKVDNKR
# notes: Phage-derived human light chain with the humanized Ab-C IgG2 heavy chain
# B2: Ab-29 (antibody, human IgG2, kappa, V domains shown)
# VH: B1 VH
# VL: DIQMTQSPLSLSASVGDRVAITCRASQSISDSLNWYQQKPGKPPKIVIYAASGLPSGVPSRFSGGGSGTDFTLVISTLQPEDFATYYCQQSYSAPLTFGGGTKVEISR
# notes: as for B1
# B3: light chain of SEQ ID NO: 108 paired with the heavy chain of SEQ ID NO: 24 (antibody, human IgG2, kappa, V domains shown)
# VH: B1 VH
# VL: DIQMTQSPSSLSASVGDRITISCQASQDIDNYLNWYQQKSGKAPKLLIYDAYNLKAGVPSRFRGSRSGTDFFLTISSLQPEDFATYYCLQQYRYPLTFGGGTKVEIKR
# B4: Ab-60 (antibody, human IgG2, lambda, V domains shown)
# VH: B1 VH
# VL: QSVVTQPPAVSGAPGQRITISCTGSSSNIGAGYDVHWYQQFPGTAPKVLIFANDYRPSGVPDRFSASKSATSASLAIRGLQSEDEADYYCQSYDNRLSGYVFGTGTKVTVLG
# notes: as for B1
# B5: Ab-16 (antibody, human IgG2, kappa, V domains shown)
# VH: B1 VH
# VL: DIQLTQSPFSLSASVGDRVTITCRASQSINDNLNWYLQKPGKAPKLLIFAASTSQSGVPSRFSGNGFGTDFSLIISGLQPEDVGTYYCQQNDSMPFTFGQGTRLDIKR
# notes: as for B1
# B6: Ab-24 (antibody, human IgG2, kappa, V domains shown)
# VH: B1 VH
# VL: ETTLTQSPALLSLSPGERATLSCRASQTLSFDFFAWYQQKPGQAPSLLISGISTRAAGVPDRFSGSGSGTDFTLTIDRLEPEDFAVYFCQQSSSLPLTFGGGTKVEIRR
# notes: as for B1
# B7: light chain of SEQ ID NO: 112 paired with the heavy chain of SEQ ID NO: 24 (antibody, human IgG2, kappa, V domains shown)
# VH: B1 VH
# VL: DIQMTQSPGTLSLSPGERATLSCRTSQSVSSTSVAWYQQKPGQAPRLLMYDASSRAAGIPDRFSGSGSVTDFTLTISRLEPEDFATYYCQQSYSLPYTFGQGTKVEIKR
# B8: Ab-13 (antibody, human IgG2, kappa, V domains shown)
# VH: B1 VH
# VL: DIQMTQSPSSLSASVGDRVTITCRASQSISEYLNWYQQKPGQAPRLLIYGVSTRATGIAARFSGSGSGTDFTLTISSLQPEDSAVYYCQQDYNVPYTFGQGTKLEIKR
# notes: as for B1
# B9: Ab-28 (antibody, human IgG2, kappa, V domains shown)
# VH: B1 VH
# VL: DIQMTQSPSSLSASVGDRVTITCRASQSISDYLNWYQQRPGKAPNLLIFASNTLQGGVPSRFRGSGSGTDFTLTINSLQHEDFGTYYCQQSYRTPLTFGGGTKVEIKR
# notes: as for B1
# B10: light chain of SEQ ID NO: 110 paired with the heavy chain of SEQ ID NO: 24 (antibody, human IgG2, lambda, V domains shown)
# VH: B1 VH
# VL: QSVLTQPPSVSGAPGQRVTISCTGGSSNIGAGYEVHWYQLVPGRAPRFLIHGDNDRPSGVPDRFSASESGSSSFLAISGLQDDDEADYYCQSYDTSLSAWVFGGGTKLTVLG
# B11: light chain of SEQ ID NO: 104 paired with the heavy chain of SEQ ID NO: 24 (antibody, human IgG2, lambda, V domains shown)
# VH: B1 VH
# VL: NFMLTQPHSVSESPGKTVTISCTRNSGSIASNYVQWYQQRPGSSPATVIYEDNQRPSGVPDRFSGSIDISSNSASLTISGLKTEDEADYYCQSYDSSNPFYVFGTGTKVTVLG
# notes: as for B1
# B12: light chain of SEQ ID NO: 106 paired with the heavy chain of SEQ ID NO: 24 (antibody, human IgG2, lambda, V domains shown)
# VH: B1 VH
# VL: NFMLTQPHSVSESPGKTITISCTRSSGSISSNYVQWYQQRPGSSPRIVMSEDDQRPSGVSDRFSGSIDISSNSAFLTISGLKPEDEGDYYCQSYDTDIPYVFGTGTKVTVLG
# B13: Ab-65 (antibody, human IgG2, lambda, V domains shown)
# VH: B1 VH
# VL: QSVLTQPPSVSGAPGQRVTISCTGSSSNIGAGYDVHWYQQLPRTAPKLLIYGDTNRPSGVPDRFSGSKSGTSASLAITGLQTEDEADYYCQSYDSSLRAYVFGTGTKVTVLG
# notes: as for B1
# B14: Ab-63 (antibody, human IgG2, lambda, V domains shown)
# VH: B1 VH
# VL: QSALTQTPSVSGTPGQRVTISCTGSRSNIGAGYDVQWYQQFPGTAPRLLIYANNIRSSGVPDRFSGSKSGTSASLAITGLQAEDEATYYCQSYDRSLSGYVFGTGTEVTVVG
# notes: as for B1
# B15: Ab-66 (antibody, human IgG2, lambda, V domains shown)
# V domain 1: QSVVTQPPSVSGAPGQRVTISCTGSSSNIGAGYDVHWYQQLPGAAPKVLIFGNNNRPSGIPDRVSGSKSGTSASLAISGLQTEDEAVYYCQSYDSSLSAYVFGGGTQVTVLG
# V domain 2: B1 VH
# notes: as for B1
# B16: light chain of SEQ ID NO: 120 paired with the heavy chain of SEQ ID NO: 24 (antibody, human IgG2, kappa, V domains shown)
# VH: B1 VH
# VL: DIQMTQSPATLSLSPGERATLSCRASRSVSSNLAWYQQKPGRAPRLLMFGASTRATGVPARFSGSGSGTEFTLTISSLQSEDVATYYCQHDNELPLTFGGGTKVELKR
# B17: light chain of SEQ ID NO: 116 paired with the heavy chain of SEQ ID NO: 24 (antibody, human IgG2, kappa, V domains shown)
# VH: B1 VH
# VL: DIQMTQSPSSLSASVGDRVTITCRASRDISVYVNWYQLKPGQAPRLLIYGASNLGFGVPSRFSGSGYGTDFALTISGLQPEDFATYSCQQSYSIPLTFGQGTRVDTKR
# B18: Ab-23 (antibody, human IgG2, kappa, V domains shown)
# VH: B1 VH
# VL: DIQMTQSPGTLSLSPGERATLFCRASQRVSSSYLAWYQQRPGQAPRLLMYGTSSWATGIPDRFSGSGSGTDFTLTISSLQPEDFATYYCQQSSSIPYTFGQGTKLEIKR
# notes: as for B1
# B19: Ab-62 (antibody, human IgG2, lambda, V domains shown)
# VH: B1 VH
# VL: QAVLTQPSSVSGAPGRRVTISCTGSSSNIGAGYDVHWYQQLPGKAPKLVISANTNRPSGVPDRFSGSKSGTSASLAITGLQAEDEADYYCQSYDNSVSAYVFGTGTKVTVLG
# notes: as for B1
# B20: light chain of SEQ ID NO: 114 paired with the heavy chain of SEQ ID NO: 24 (antibody, human IgG2, kappa, V domains shown)
# VH: B1 VH
# VL: NIQMTQSPGTLSLSPGERATLSCRASQSVTGNHLAWYQQKPGQAPRVLMYDTSSRATGIPDRFSGSGSGTDFTLTISSLQPEDIATYYCQQFDNLPYTFGQGTKLEIKR
# B21: Ab-18 (antibody, human IgG2, kappa, V domains shown)
# VH: B1 VH
# VL: DIQLTQSPSSLSASVGDRVTITCQASQDINNYLSWYQQKPGKAPKVLIYDTSNLETGVPSRFSGSGSGTDFTFTISSLQPEDIATYYCQQSDNLPYTFGQGTKLEIKR
# notes: as for B1
# B22: Ab-1 (antibody, human IgG2, lambda, V domains shown)
# VH: B1 VH
# VL: QSVVTQPPSVSGAPGQRVTMSCTGSSSNLGAGYDVNWYQQLPGKAPKVLIYGNEIRPSGVPDRFSGSKSDTSATLDITGLQTGDEADYYCETWDSSLSTVVFGGGTKLTVLG
# notes: Phage-derived human light chain with the humanized Ab-C IgG2 heavy chain, transiently expressed in 293 6E cells
# B23: light chain of SEQ ID NO: 118 paired with the heavy chain of SEQ ID NO: 24 (antibody, human IgG2, kappa, V domains shown)
# VH: B1 VH
# VL: B3 VL with S9D, K39R, A84G, Y92S, R93S, G100Q
# B24: Ab-D (antibody, V domains shown)
# VH: B1 VH
# VL: DIQMTQSPSSLSASVGDRVTISCRASESVDNYGSSFMNWYQQKPGKAPKLLIYAASNQGSGVPSRFSGSGSGTDFTLTISSLQPEDFATYYCQQSKEVPYTFGQGTKLEIKR
# notes: Humanized Ab-C, human kappa / human IgG2
# B25: Ab-O (antibody, human IgG2, V domains shown)
# VH: B1 VH
# VL: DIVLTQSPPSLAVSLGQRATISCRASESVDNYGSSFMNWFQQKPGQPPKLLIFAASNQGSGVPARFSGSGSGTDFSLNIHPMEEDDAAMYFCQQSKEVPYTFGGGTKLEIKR
# notes: Human IgG2 heavy chain
# B26: Ab-B (antibody, V domains shown)
# VH: QVQLVQSGAEVKKPGASVKVSCKASGYTFTTYGMSWVRQAPGQGLEWMGWINTYSGVPTYADDFKGRFVFSLDTSVSTAYLQINSLKAEDTAVYYCARGREYYYGSGIAFWGQGTLVTVSS
# VL: DVVMTQSPLSLPVTLGQPASISCRSSQSLEHSNGNTYLHWYLQKPGQSPQLLIYKVSNRFSGVPDRFSGSGSGTDFTLKISRVEAEDVGVYFCSQSTHVPLTFGGGTKVEIKR
# notes: Humanized Ab-A, human kappa / human IgG2
# B27: Ab-G (antibody, human IgG2, kappa, V domains shown)
# VH: B26 VH with R38K, Y95F, A97V
# VL: B26 VL
# notes: as for B26
# Molecular target: T1, human WISE
# Assay: assay not specified (IgG2 from transient transfection)
row,Binder,binding result
1,B1,binds
2,B2,binds
3,B3,binds
4,B4,binds
5,B5,binds
6,B6,binds
7,B7,binds
8,B8,binds
9,B9,binds
10,B10,binds
11,B11,binds
12,B12,binds
13,B13,binds
14,B14,binds
15,B15,binds
16,B16,binds
17,B17,binds
18,B18,binds
19,B19,binds
20,B20,binds
21,B21,binds
22,B22,binds
23,B23,binds

# Molecular target: T1, human WISE
# Assay: ELISA, antibody coated, biotinylated human WISE titrated
row,Binder,binding result
1,B24,binds
2,B25,binds
3,B26,binds
4,B27,binds

# Reference: patent US20090130114A1 (Amgen, published 2009)
